This experiment deals with human wild-type Cdk2 GST fusion protein (human, UniProt P24941 1-298). As to the kind of experiment: pull-down.

B1: Recombinant human wild-type DNA polymerase λ, His-tagged (enzyme)
chain: MDPRGILKAFPKRQKIHADASSKVLAKIPRREEGEEAEEWLSSLRAHVVRTGIGRARAELFEKQIVQHGGQLCPAQGPGVTHIVVDEGMDYERALRLLRLPQLPPGAQLVKSAWLSLCLQERRLVDVAGFSIFIPSRYLDHPQPSKAEQDASIPPGTHEALLQTALSPPPPPTRPVSPPQKAKEAPNTQAQPISDDEASDGEETQVSAADLEALISGHYPTSLEGDCEPSPAPAVLDKWVCAQPSSQKATNHNLHITEKLEVLAKAYSVQGDKWRALGYAKAINALKSFHKPVTSYQEACSIPGIGKRMAEKIIEILESGHLRKLDHISESVPVLELFSNIWGAGTKTAQMWYQQGFRSLEDIRSQASLTTQQAIGLKHYSDFLERMPREEATEIEQTVQKAAQAFNSGLLCVACGSYRRGKATCGDVDVLITHPDGRSHRGIFSRLLDSLRQEGFLTDDLVSQEENGQQQKYLGVCRLPGPGRRHRRLDIIVVPYSEFACALLYFTGSAHFNRSMRALAKTKGMSLSEHALSTAVVRNTHGCKVGPGRVLPTPTEKDVFRLLGLPYREPAERDW
B1: the binding result is given as “binds”.
